In publication PMC5383425, “Differential CLE peptide perception by plant receptors implicated from structural and functional analyses of TDIF-TDR interactions” (PLoS ONE, 2017):
Square brackets hold non-standard residues; d marks the D form. Ends that are not written are not given here. Hyp = O=C(O)[C@@H]1C[C@@H](O)CN1

Tests used:
Assay in all cases: ITC
[1] = target: T1, ecdTDR Y234 alanine mutant (Arabidopsis thaliana, UniProt Q9FII5 30-642, alanine substitution of Y234)
T1 sequence: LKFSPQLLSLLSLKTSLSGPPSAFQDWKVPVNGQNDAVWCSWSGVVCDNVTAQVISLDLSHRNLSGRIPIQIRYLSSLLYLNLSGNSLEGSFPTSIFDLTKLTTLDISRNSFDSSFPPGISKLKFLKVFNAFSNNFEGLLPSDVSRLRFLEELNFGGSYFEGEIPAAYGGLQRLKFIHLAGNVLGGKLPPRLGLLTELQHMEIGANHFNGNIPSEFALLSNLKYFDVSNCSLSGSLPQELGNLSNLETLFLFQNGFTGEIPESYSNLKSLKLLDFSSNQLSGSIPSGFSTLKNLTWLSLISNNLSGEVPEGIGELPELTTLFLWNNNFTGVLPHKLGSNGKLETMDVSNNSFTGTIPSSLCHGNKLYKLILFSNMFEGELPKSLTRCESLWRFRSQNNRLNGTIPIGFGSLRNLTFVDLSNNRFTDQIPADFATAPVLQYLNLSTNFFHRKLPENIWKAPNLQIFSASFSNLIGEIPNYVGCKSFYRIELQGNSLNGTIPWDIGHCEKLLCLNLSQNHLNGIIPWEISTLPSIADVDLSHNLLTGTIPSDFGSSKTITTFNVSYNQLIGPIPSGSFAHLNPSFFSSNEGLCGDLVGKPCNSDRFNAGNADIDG

[2] = target: T2, TDR-R421A/R423A double mutant (ecdTDR) (Arabidopsis thaliana, UniProt Q9FII5 30-642, R421A | R423A)
T2 sequence: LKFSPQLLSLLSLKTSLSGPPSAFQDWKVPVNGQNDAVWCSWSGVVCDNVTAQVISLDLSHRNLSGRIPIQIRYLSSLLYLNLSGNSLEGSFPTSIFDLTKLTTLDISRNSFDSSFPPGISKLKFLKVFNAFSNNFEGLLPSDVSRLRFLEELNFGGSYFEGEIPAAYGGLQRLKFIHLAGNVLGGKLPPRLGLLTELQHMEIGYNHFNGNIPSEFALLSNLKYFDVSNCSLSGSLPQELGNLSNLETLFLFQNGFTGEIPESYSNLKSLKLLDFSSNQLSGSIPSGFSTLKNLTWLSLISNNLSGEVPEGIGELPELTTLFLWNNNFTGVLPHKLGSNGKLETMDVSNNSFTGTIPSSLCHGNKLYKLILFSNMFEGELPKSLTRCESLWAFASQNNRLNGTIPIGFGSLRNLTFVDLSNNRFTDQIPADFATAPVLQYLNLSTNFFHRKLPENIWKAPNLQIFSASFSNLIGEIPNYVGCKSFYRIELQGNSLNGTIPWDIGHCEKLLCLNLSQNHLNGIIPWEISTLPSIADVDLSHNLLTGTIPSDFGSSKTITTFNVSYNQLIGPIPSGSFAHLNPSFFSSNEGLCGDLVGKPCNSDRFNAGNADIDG

ecdTDR S305A mutant = target: T3, ecdTDR S305A mutant (Arabidopsis thaliana, UniProt Q9FII5 30-642, S305A)
T3 sequence: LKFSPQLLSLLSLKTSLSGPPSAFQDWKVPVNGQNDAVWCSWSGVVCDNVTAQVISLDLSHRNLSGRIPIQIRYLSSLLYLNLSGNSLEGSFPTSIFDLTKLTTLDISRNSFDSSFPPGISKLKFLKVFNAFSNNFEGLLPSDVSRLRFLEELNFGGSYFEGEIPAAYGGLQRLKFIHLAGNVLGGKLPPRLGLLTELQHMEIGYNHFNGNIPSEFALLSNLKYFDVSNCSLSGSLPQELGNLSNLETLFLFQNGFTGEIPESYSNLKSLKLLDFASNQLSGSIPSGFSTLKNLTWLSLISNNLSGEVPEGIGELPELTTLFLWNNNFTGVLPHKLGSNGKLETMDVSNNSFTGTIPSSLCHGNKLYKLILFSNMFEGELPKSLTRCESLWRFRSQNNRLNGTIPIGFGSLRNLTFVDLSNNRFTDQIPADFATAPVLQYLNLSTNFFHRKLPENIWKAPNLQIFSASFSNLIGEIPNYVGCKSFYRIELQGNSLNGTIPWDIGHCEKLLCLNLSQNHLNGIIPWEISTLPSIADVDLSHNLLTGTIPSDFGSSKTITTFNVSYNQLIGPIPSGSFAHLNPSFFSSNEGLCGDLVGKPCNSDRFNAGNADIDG

ecdTDR W353A mutant = target: T4, ecdTDR W353A mutant (Arabidopsis thaliana, UniProt Q9FII5 30-642, W353A)
T4 sequence: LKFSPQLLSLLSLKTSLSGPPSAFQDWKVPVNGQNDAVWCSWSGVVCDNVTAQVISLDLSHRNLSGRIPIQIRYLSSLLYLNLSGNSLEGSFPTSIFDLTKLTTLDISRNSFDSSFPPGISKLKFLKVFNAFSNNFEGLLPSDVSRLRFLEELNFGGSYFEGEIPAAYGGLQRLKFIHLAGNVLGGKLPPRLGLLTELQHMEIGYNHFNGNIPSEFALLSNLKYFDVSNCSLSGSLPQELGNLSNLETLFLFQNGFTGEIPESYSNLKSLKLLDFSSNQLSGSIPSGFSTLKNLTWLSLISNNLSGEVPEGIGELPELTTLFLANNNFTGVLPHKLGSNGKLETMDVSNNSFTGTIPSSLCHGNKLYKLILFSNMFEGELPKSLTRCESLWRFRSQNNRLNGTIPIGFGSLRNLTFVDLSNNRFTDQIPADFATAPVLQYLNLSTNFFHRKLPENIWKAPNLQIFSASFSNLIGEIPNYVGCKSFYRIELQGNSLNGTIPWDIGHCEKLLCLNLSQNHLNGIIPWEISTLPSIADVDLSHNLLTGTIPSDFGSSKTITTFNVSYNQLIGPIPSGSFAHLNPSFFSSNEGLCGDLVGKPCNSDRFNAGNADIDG

B1: Tracheary Element Differentiation Inhibitory Factor (TDIF) peptide (peptide)
peptide: HEV[Hyp]SG[Hyp]NPISN
notes: TDIF, the 12-residue CLE peptide processed from CLE41 and CLE44 of A. thaliana; printed as HEV(Hyp)SG(Hyp)NPISN; numbers count on: the 12-residue peptide; CLE44 encodes the same peptide; also called wild type TDIF; wtTDIF; source: synthetic peptide (peptide 2.0)
[1]
  Kd: 1650 nM
[2]
  Kd: 306 nM
ecdTDR S305A mutant
  Kd: 455 nM
ecdTDR W353A mutant
  Kd: 862 nM
